Reference: publication PMC3112360

Legend:
[1] = target: homocysteinylated fibronectin (human (endogenous in primary human dermal fibroblasts)) (UniProt P02751); test: ELISA
[2] = target: homocysteinylated FN40K fragment (human) (UniProt P02751); test: ELISA
homocysteinylated FN40K fragment (human), sequence (P02751 32-2477): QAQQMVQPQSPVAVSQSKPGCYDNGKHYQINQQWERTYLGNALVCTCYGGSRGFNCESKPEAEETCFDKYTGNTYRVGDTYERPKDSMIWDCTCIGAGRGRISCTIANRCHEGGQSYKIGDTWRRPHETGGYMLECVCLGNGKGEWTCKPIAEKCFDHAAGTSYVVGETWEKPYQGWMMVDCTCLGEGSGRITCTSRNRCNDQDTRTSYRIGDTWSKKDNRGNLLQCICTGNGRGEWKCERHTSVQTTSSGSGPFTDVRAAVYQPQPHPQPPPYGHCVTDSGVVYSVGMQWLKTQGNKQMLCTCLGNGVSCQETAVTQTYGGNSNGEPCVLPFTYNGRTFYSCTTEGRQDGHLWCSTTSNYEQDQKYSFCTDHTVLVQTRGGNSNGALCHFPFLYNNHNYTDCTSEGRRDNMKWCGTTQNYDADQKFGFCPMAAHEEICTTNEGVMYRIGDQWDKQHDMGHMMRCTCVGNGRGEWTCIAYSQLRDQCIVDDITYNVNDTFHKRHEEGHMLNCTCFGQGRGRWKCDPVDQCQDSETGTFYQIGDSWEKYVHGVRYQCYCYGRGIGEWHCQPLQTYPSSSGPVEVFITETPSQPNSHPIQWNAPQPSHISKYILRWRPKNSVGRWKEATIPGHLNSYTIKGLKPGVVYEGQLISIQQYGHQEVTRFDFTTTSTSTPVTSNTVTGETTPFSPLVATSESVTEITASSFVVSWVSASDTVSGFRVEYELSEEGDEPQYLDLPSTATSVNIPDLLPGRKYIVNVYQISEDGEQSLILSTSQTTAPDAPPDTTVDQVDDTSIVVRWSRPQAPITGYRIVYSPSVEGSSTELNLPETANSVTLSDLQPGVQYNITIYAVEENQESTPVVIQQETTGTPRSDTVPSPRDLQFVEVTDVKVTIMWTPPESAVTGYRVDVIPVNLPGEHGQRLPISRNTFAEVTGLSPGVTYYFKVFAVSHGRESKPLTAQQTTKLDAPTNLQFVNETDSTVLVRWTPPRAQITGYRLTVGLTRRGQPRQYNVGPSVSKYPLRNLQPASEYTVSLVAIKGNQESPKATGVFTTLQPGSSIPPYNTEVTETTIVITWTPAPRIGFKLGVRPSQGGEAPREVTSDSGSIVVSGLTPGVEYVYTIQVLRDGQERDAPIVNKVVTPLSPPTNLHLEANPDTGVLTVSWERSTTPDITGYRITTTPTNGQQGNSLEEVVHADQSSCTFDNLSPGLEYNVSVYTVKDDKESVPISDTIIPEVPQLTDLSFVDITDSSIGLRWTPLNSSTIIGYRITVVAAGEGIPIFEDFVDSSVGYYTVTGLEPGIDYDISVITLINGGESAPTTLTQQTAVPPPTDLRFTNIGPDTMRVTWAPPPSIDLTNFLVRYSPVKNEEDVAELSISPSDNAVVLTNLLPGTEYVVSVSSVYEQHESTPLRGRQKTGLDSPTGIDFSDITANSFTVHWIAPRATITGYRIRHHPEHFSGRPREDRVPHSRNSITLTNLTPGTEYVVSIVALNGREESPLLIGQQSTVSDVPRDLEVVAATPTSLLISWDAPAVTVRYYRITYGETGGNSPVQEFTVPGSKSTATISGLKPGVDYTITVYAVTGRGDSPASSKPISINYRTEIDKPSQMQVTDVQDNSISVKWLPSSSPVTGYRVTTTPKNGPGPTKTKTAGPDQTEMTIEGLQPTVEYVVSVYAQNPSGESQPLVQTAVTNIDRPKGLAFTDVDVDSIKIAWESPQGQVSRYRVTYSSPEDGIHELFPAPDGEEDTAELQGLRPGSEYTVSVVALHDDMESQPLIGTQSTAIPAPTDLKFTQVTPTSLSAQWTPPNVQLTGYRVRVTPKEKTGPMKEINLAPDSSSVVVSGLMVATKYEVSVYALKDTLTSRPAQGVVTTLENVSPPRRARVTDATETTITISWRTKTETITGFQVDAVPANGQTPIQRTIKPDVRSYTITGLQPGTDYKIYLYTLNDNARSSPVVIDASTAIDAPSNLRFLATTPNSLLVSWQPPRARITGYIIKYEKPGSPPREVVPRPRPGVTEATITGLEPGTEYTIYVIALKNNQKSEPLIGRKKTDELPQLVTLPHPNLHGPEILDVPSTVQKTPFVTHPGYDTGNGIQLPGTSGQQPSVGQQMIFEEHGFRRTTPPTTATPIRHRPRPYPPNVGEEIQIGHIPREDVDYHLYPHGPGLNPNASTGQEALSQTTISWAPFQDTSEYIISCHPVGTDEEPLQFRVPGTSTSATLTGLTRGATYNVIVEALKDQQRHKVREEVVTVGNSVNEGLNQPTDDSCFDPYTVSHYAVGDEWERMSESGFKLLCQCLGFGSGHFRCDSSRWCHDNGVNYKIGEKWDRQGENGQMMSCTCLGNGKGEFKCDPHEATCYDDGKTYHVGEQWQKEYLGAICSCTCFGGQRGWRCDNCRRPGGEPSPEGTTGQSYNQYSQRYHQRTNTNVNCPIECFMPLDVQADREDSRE

homocysteinylated fibronectin (human (endogenous in primary human dermal fibroblasts)), sequence (P02751 32-2477): as above

relative reduction in binding against the non-modified control [1]: 65% | relative reduction in binding against the non-modified control [2]: 34.1%
Substance: recombinant C-terminal half of fibrillin-1 (rFBN1-C) (from UniProt P35555 45-2731) (domain or fragment)
